{"source": "paper PMC7954794", "about": "“Protein context shapes the specificity of SH3 domain-mediated interactions in vivo” (Nature Communications, 2021)", "molecules": {"B1": {"name": "YJL020C_1 (protein, UniProt P47068 1-1157, looked up)", "Myosin tail …": "MSEPEVPFKVVAQFPYKSDYEDDLNFEKDQEIIVTSVEDAEWYFGEYQDSNGDVIEGIFPKSFVAVQGSEVGKEAESSPNTGSTEQRTIQPEVEQKDLPEPISPETKKETLSGPVPVPAATVPVPAATVPVPAATAVSAQVQHDSSSGNGERKVPMDSPKLKARLSMFNQDITEQVPLPKSTHLDLENIPVKKTIVADAPKYYVPPGIPTNDTSNLERKKSLKENEKKIVPEPINRAQVESGRIETENDQLKKDLPQMSLKERIALLQEQQRLQAAREEELLRKKAKLEQEHERSAVNKNEPYTETEEAEENEKTEPKPEFTPETEHNEEPQMELLAHKEITKTSREADEGTNDIEKEQFLDEYTKENQKVEESQADEARGENVAEESEIGYGHEDREGDNDEEKEEEDSEENRRAALRERMAKLSGASRFGAPVGFNPFGMASGVGNKPSEEPKKKQHKEKEEEEPEQLQELPRAIPVMPFVDPSSNPFFRKSNLSEKNQPTETKTLDPHATTEHEQKQEHGTHAYHNLAAVDNAHPEYSDHDSDEDTDDHEFEDANDGLRKHSMVEQAFQIGNNESENVNSGEKIYPQEPPISHRTAEVSHDIENSSQNTTGNVLPVSSPQTRVARNGSINSLTKSISGENRRKSINEYHDTVSTNSSALTETAQDISMAAPAAPVLSKVSHPEDKVPPHPVPSAPSAPPVPSAPSVPSAPPVPPAPPALSAPSVPPVPPVPPVSSAPPALSAPSIPPVPPTPPAPPAPPAPLALPKHNEVEEHVKSSAPLPPVSEEYHPMPNTAPPLPRAPPVPPATFEFDSEPTATHSHTAPSPPPHQNVTASTPSMMSTQQRVPTSVLSGAEKESRTLPPHVPSLTNRPVDSFHESDTTPKVASIRRSTTHDVGEISNNVKIEFNAQERWWINKSAPPAISNLKLNFLMEIDDHFISKRLHQKWVVRDFYFLFENYSQLRFSLTFNSTSPEKTVTTLQERFPSPVETQSARILDEYAQRFNAKVVEKSHSLINSHIGAKNFVSQIVSEFKDEVIQPIGARTFGATILSYKPEEGIEQLMKSLQKIKPGDILVIRKAKFEAHKKIGKNEIINVGMDSAAPYSSVVTDYDFTKNKFRVIENHEGKIIQNSYKLSHMKSGKLKVFRIVARGYVGW"}, "B2": {"name": "YOL100W_1 (protein, UniProt Q12236 1-1081, looked up)", "Serine/threonine-protein …": "MYFDKDNSMSPRPLLPSDEQKLNINLLTKKEKFSHLDPHYDAKATPQRSTSNRNVGDLLLEKRTAKPMIQKALTNTDNFIEMYHNQQRKNLDDDTIKEVMINDENGKTVASTNDGRYDNDYDNNDINDQKTLDNIAGSPHMEKNRNKVKIEHDSSSQKPIAKESSKAQKNIIKKGIKDFKFGSVIGDGAYSTVMLATSIDTKKRYAAKVLNKEYLIRQKKVKYVSIEKTALQKLNNSPSVVRLFSTFQDESSLYFLLEYAPNGDFLSLMKKYGSLDETCARYYAAQIIDAIDYLHSNGIIHRDIKPENILLDGEMKIKLTDFGTAKLLNPTNNSVSKPEYDLSTRSKSFVGTAEYVSPELLNDSFTDYRCDIWAFGCILFQMIAGKPPFKATNEYLTFQKVMKVQYAFTPGFPLIIRDLVKKILVKNLDRRLTISQIKEHHFFKDLNFKDGSVWSKTPPEIKPYKINAKSMQAMPSGSDRKLVKKSVNTLGKSHLVTQRSASSPSVEETTHSTLYNNNTHASTESEISIKKRPTDERTAQILENARKGINNRKNQPGKRTPSGAASAALAASAALTKKTMQSYPTSSSKSSRSSSPATTSRPGTYKRTSSTESKPFAKSPPLSASVLSSKVPMPPYTPPMSPPMTPYDTYQMTPPYTTKQQDYSDTAIAAPKPCISKQNVKNSTDSPLMNKQDIQWSFYLKNINEHVLRTEKLDFVTTNYDILEKKMLKLNGSLLDPQLFGKPRHTFLSQVARSGGEVTGFRNDPTMTAYSKTEDTYYSKNIIDLQLLEDDYRIEGGDLSELLTNRSGEGYKCNQNSSPMKDDDKSESNNKGSSVFSGKIKKLFHPTSAAETLSSSDEKTKYYKRTIVMTSFGRFLVFAKRRQPNPVTNLKYELEYDINLRQQGTKIKELIIPLEMGTNHIVVIQTPYKSFLLSTDKKTTSKLFTVLKKILNSNTNKIEKELLQRNQKVIERRTSSSGRAIPKDLPTSKSPSPKPRTHSQSPSISKHNSFSESINSAKSNRSSRIFETFINAKEQNSKKHAAPVPLTSKLVNGLPKRQVTVGLGLNTGTNFKNSSAKSKRS"}, "B3": {"name": "YNL287W_2 (protein, UniProt P32074 1-935, looked up)", "Coatomer subunit gamma": "MSAHTYKKFENSTSGDLPDKMTIYQDCMNTFNESPVNSKRCRLLISRLLRLLAQGETFPQNEATALFFSISKLFQHQNDPLRQAVYLAIKELSGISEDVLMATSSIMKDVQNGSDLIKPDAIRSLTYVLDESTAFSAERLLKSAVVSRHPSISSAALCTSYHLLPISEVTIRRFTNETQEAVLDLKQFPNQHGNSEYYPNSTYISQYHALGLLYQLKKTDKMALLKLVRHFSENNSMKNQLAKVELVKIVNDLIYRDPQLFSQFRPLLSDWLSNKFESVQLETAKLITSFATRNSRLVAPELYAAAISALQSLLTVPRVSSRFAALRILNRISMVSPEKIVVCNPELESLINDSNRNISTYAITTLLKTGTSKNISSLISTITNFIHDVSDDFKIIIIDAVRTLSLNFPQEWKSILNFLIDVLKNSEGGFKFKNSIVEALIDIVSFVPQSKELALENLCDFIEDCEFNEILVRILHLLGKEGPSAPNPSLYVRHIYNRVVLENSIIRSAAVVALSKFALTKNDPTLYESIISLLKRIANDKDDEVRDRATIALEFIDSARNKDDVIAQNLIESKYFYDIPSLESKLSSYISSNTDSFATAFDVNQVRKFTEDEMKAINLKRKQEQIFNQKSETTLDTTPEAESVPEKRADANSFAGPNLDDHQEDLLATKYADELLSIEQIKPFGQLVNSSRAISLTEPEAEFVVRGVKHLFKDNVVLQFNITNTLTDIALDNVSVVCTPEISDEAELEELFTLQVDRLLPSEEAACYVAFKKLDEIVMEGFLNNLTFTTKEINPDTNEPFDGDEGFQDEYEIDSIFLNAGDYVKSSFTGNFSATFDELPCEEVAVFNIQEDLSIQEVVDKIILNSSCLPVESTQFAPSDSNSHTLKLFGKSALTGSKVALQIKMIKSSKGLALKVHGKGEDSLLCSDLVNGLMQ"}, "B4": {"name": "YMR192W_1 (protein, UniProt Q04322 1-720, looked up)", "Probable GTPase-activating …": "MNSNEDIHEERIEVPRTPHQTQPEKDSDRIALRDEISVPEGDEKAYSDEKVEMATTNASSNFGSNESAKDGESIGAFSNPHEALMQSKLREESQSKTILPSDDLSQQLETEESKVEEALKRITSPPLPPRADCIEESASALKSSLPPVLAGNKNDQAPLDRPQLPPRQVVNAETLHLKAPHGNATPSKSPTSAVGNSSSSTPPTLPPRRIEDPLDLAAQKHFLASTFKRNMLFYKSEDNSIKCDLDKNILNLKEDSKKINNNEIPEEVSSFWLKVIGDYQNILINDIETLHFQLSRGIPAAYRLVVWQLVSYAKSKSFDPIYETYLTEMAPFDVQEFENQLKMMDEVPSEYVKRISNVLKAYLLFDPECEFSTDIAYIINMILDVCEEEANAFGLLVRLMKVYGLRLLFLPSASEIDILCYKFDRLVEEFYPEIHNHMVEKGVRSSMFLPGFFTTLFQKKLPTEIQPRIGDMVFLEGIDSIMRILATLLSNSRDHLLKMGFDDMLELLKSGLLDAYIKQNDGTRGDTLLSNECMDKLLQDSMMKVAITPKTMKKYSSEYEEIHRLDNEKEVQYKSITEKNLHLQKHVRKLENDYTSLNREHVTIANELVKNRLNIESVLNENNGYKLQILDLKKKLDSEKKKQVLGVYVPNDLKKDLEETMKKNTQVMDENLKLQDRISELERLIEEIKTANKNGTLFEYSNSKNNPLGAGWSGFKKVFK"}, "B5": {"name": "YNL106C_1 (protein, UniProt P50942 1-1183, looked up)", "Polyphosphatidylinositol …": "MKILLSKQQTRKIAIVSETHGLVFRPINSKNSRRSTCAVELVPKAELNGNGFRRLSNHEIYGFIGLIEIEGLMFIATITGKSKVAQPIPNKTVNKIYAVDFFCLNNSKWDFMDIDSSGYPIVTNDGDFAISSPPSISTHSSRSSLRSSSSRSLNAQEQAPKHPCHELRKLLSNGSFYYSTDFDLTCTLQKRGFTEHSLSFDDFDREFMWNSFLMDEIITYRDRLDVTAKELLDQRGFLTTVIRGFAETIFSYINRLKVGLTIISRQSWKRAGTRFNARGIDDDGHVANFVETEMIMYSSQYCYAFTQIRGSLPIFWEQDTSLISPKIQITRSVEATQPTFDEHFIRLFKKYGPVHIINLLSTKSSEIQLSRRYKEQLKNSEKMKIGRDVFLTSFDFHRETSQDGFAAASRIIPKIRNTILDAGYFSYDVKEGRLISEQDGVFRTNCLDCLDRTNLIQQTISLAVFKLFLEDFRLVKPSSFIDDNEFVQKVNALWADNGDQISQIYTGTNALKSSYSRKGKMSFSGALSDATKSVSRMYINNFVDKGKQQNIDTLLGKLPHQQVVELYDPICEYVNERLLESEEKFTTHSNINLFVGTFNVNGNSRRADLSKWLFPIGDKFKPDVVVLGLQEVIELTAGSILNADYTKSSFWETMVTDCLNQYEEKYLLLRVEQMSSLLILFFARSDRAYNIKEVGGSTKKTGFGGITGNKGAVAIRFDYGATSFCFVNTHLSAGASNIDERRNDYNNIYRNITFPRSKTIPHHDSLFWLGDLNYRITLTNDEVRRELRAQKDGYIDRLLQYDQLTQEINEGVVFQGFKEPTLQFRPTYKYDYGTDNYDTSEKARTPSWTDRIIYKGENLHPLAYSDAPLKISDHKPVYAAYRANVKFVDEKEKLNLVEKLYAEYKNTHPEALTTGPDELSHARMEKQKESIPLDATVQSAGIKLIDLDDTSSCVSPLLSGPSPQPSVVGPGGLSNVSPDKSKLNVLPPPPPTSRHNKEPSSKLLSPTKEISIVSVSPRKGESNLPALERHSTPKPLPPVPALSLSKPVSLQKSSSELQHAKETIDNGKIVPRPCPPIRRKSSTAPDEISTSTKNSGVSTTEDPEPAKASTKPEKPPVVKKPHYLSVAANKLNTSQEHSIKVSPSNSKSEEELPCKKKSKPKVPAKNPELEKLSVHPLKPCDPN"}}, "test_system": "PPIs identified as affected by the SH3 domain deletions", "assay": "Liquid DHFR-PCA low-throughput validation of PPIs affected by SH3 deletion (Fig. S1D-E)", "assay_type": "cell-based, Saccharomyces cerevisiae", "settings": "label = prey, liquid DHFR-PCA, prey _1 = lost, _2 = gained in screen", "in_short": "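Growth at 30 °C was tracked by OD each 15 min over 72 h in agar-free PCA selection medium, starting at 0.1 OD. Cells were diploids selected after mating, first cultured 48 h with NAT and HPH in synthetic complete MSG medium, pH 6.0.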"}
{"molecule": "B1", "values": [{"measurement": "Ratio (Deletedscore / WTscore)", "setting": "bait MYO3", "value": 0.4075}, {"measurement": "Ratio (Deletedscore / WTscore)", "setting": "bait MYO5", "value": 0.4895}]}
{"molecule": "B2", "values": [{"measurement": "Ratio (Deletedscore / WTscore)", "setting": "bait MYO3", "value": 0.53}]}
{"molecule": "B3", "values": [{"measurement": "Ratio (Deletedscore / WTscore)", "setting": "bait ABP1", "value": 1.101}, {"measurement": "Ratio (Deletedscore / WTscore)", "setting": "bait LSB3", "value": 1.751}]}
{"molecule": "B4", "values": [{"measurement": "Ratio (Deletedscore / WTscore)", "setting": "bait LSB3", "value": 0.5637}]}
{"molecule": "B5", "values": [{"measurement": "Ratio (Deletedscore / WTscore)", "setting": "bait LSB3", "value": 0.7587}]}
